{"source": "patent US20250327097A1", "about": "“ORGANISMS PRODUCING LESS CROTONIC ACID” (Global Bioenergies, priority 2021, published 2025)"}
{"system": "3-methylcrotonic acid", "assay_type": "biochemical, Yersinia frederiksenii", "set-up": "key: “+” representing a low increase in activity; “++++” representing a high increase in activity"}
{"molecule": "I283T-P284D-N285M-N287T-S322T-N388M-K394R-C430A-L432F-L434W-S436N-G462T-A463P (protein) MFLKSLREQINLLKRQGDLRIINRPVDSYLEAAAIIRRSTETKAPVPLMTNIKGYPGCSIVGGLAALSSNPEYPLSRVAMSLGLSTTASAQSIVQYLIDGLKKTPYLPVEIDSNSAPCKQNILRGEDASLAHFPIPQVHQHDGNRYVNTWGVFIVESPDGQWCNWSIQRVQYLNDRQMIALVFPSQHISDIWEEWVKIGKPMPYALVQGCEPIVPYIAGLPLLERNVNEAEYIGALYGKGIEVVKCETHDLRVPASSEVVIEGYFAITREGVEGPFGEFAGYTDMETSLQPILSITAISWQDDPIWPVVAEGKPVDEYHTCTGIGDAAAIQNVLLTANLPVSFVWVPLYSACHLMIVSINRHWRQTHPDLTSEQLTKKVGDVIHQTRMSIKLPRIVVLDDDVDPADTESLLWALATRIHPERKRYFYESAIFPWLNCYSEEERHNRKGKRVIIDALLPENHTPISSFDYAYPDDIKQRVLMHWETDFSHD", "Activity relative to WT": "++++"}
{"molecule": "I283T-P284D-i284aP-N287P-S322T-N388M-E421V-R422F-C430N-L432F-L434W-S436N-H461T-dG462-A463T (protein) MFLKSLREQINLLKRQGDLRIINRPVDSYLEAAAIIRRSTETKAPVPLMTNIKGYPGCSIVGGLAALSSNPEYPLSRVAMSLGLSTTASAQSIVQYLIDGLKKTPYLPVEIDSNSAPCKQNILRGEDASLAHFPIPQVHQHDGNRYVNTWGVFIVESPDGQWCNWSIQRVQYLNDRQMIALVFPSQHISDIWEEWVKIGKPMPYALVQGCEPIVPYIAGLPLLERNVNEAEYIGALYGKGIEVVKCETHDLRVPASSEVVIEGYFAITREGVEGPFGEFAGYTDNEPSLQPILSITAISWQDDPIWPVVAEGKPVDEYHTCTGIGDAAAIQNVLLTANLPVSFVWVPLYSACHLMIVSINRHWRQTHPDLTSEQLTKKVGDVIHQTRMSIKLPKIVVLDDDVDPADTESLLWALATRIHPVFKRYFYESNIFPWLNCYSEEERHNRKGKRVIIDALLPENTGTISSFDYAYPDDIKQRVLMHWETDFSHD", "Activity relative to WT": "++++"}
{"molecule": "I283T-P284D-i284aP-N287P-S322T-N388M-E421V-C430N-L432F-L434W-S436N-dG462-A463T (protein) MFLKSLREQINLLKRQGDLRIINRPVDSYLEAAAIIRRSTETKAPVPLMTNIKGYPGCSIVGGLAALSSNPEYPLSRVAMSLGLSTTASAQSIVQYLIDGLKKTPYLPVEIDSNSAPCKQNILRGEDASLAHFPIPQVHQHDGNRYVNTWGVFIVESPDGQWCNWSIQRVQYLNDRQMIALVFPSQHISDIWEEWVKIGKPMPYALVQGCEPIVPYIAGLPLLERNVNEAEYIGALYGKGIEVVKCETHDLRVPASSEVVIEGYFAITREGVEGPFGEFAGYTDNEPSLQPILSITAISWQDDPIWPVVAEGKPVDEYHTCTGIGDAAAIQNVLLTANLPVSFVWVPLYSACHLMIVSINRHWRQTHPDLTSEQLTKKVGDVIHQTRMSIKLPKIVVLDDDVDPADTESLLWALATRIHPVRKRYFYESNIFPWLNCYSEEERHNRKGKRVIIDALLPENHGTISSFDYAYPDDIKQRVLMHWETDFSHD", "Activity relative to WT": "++++"}
{"molecule": "N287K-N388M-K394R-C430N-L432F-L434W-S436N (protein) MFLKSLREQINLLKRQGDLRIINRPVDSYLEAAAIIRRSTETKAPVPLMTNIKGYPGCSIVGGLAALSSNPEYPLSRVAMSLGLSTTASAQSIVQYLIDGLKKTPYLPVEIDSNSAPCKQNILRGEDASLAHFPIPQVHQHDGNRYVNTWGVFIVESPDGQWCNWSIQRVQYLNDRQMIALVFPSQHISDIWEEWVKIGKPMPYALVQGCEPIVPYIAGLPLLERNVNEAEYIGALYGKGIEVVKCETHDLRVPASSEVVIEGYFAITREGVEGPFGEFAGYIPNEKSLQPILSITAISWQDDPIWPVVAEGKPVDEYHTCSGIGDAAAIQNVLLTANLPVSFVWVPLYSACHLMIVSINRHWRQTHPDLTSEQLTKKVGDVIHQTRMSIKLPRIVVLDDDVDPADTESLLWALATRIHPERKRYFYESNIFPWLNCYSEEERHNRKGKRVIIDALLPENHGAISSFDYAYPDDIKQRVLMHWETDFSHD", "Activity relative to WT": "+"}
{"molecule": "I283T-P284D-i284aP-N287P-S322T-N388M-E421V-R422F-C430N-L432F-L434W-S436N-H461T-dG462 (protein) MFLKSLREQINLLKRQGDLRIINRPVDSYLEAAAIIRRSTETKAPVPLMTNIKGYPGCSIVGGLAALSSNPEYPLSRVAMSLGLSTTASAQSIVQYLIDGLKKTPYLPVEIDSNSAPCKQNILRGEDASLAHFPIPQVHQHDGNRYVNTWGVFIVESPDGQWCNWSIQRVQYLNDRQMIALVFPSQHISDIWEEWVKIGKPMPYALVQGCEPIVPYIAGLPLLERNVNEAEYIGALYGKGIEVVKCETHDLRVPASSEVVIEGYFAITREGVEGPFGEFAGYTDNEPSLQPILSITAISWQDDPIWPVVAEGKPVDEYHTCTGIGDAAAIQNVLLTANLPVSFVWVPLYSACHLMIVSINRHWRQTHPDLTSEQLTKKVGDVIHQTRMSIKLPKIVVLDDDVDPADTESLLWALATRIHPVFKRYFYESNIFPWLNCYSEEERHNRKGKRVIIDALLPENTGAISSFDYAYPDDIKQRVLMHWETDFSHD", "Activity relative to WT": "++++"}
{"molecule": "L223Y-I283T-N285P-N287T-Q290E-S322T-N388M-K394R-K423G-C430A-L432F-L434W-S436N-dG462 (protein) MFLKSLREQINLLKRQGDLRIINRPVDSYLEAAAIIRRSTETKAPVPLMTNIKGYPGCSIVGGLAALSSNPEYPLSRVAMSLGLSTTASAQSIVQYLIDGLKKTPYLPVEIDSNSAPCKQNILRGEDASLAHFPIPQVHQHDGNRYVNTWGVFIVESPDGQWCNWSIQRVQYLNDRQMIALVFPSQHISDIWEEWVKIGKPMPYALVQGCEPIVPYIAGLPLYERNVNEAEYIGALYGKGIEVVKCETHDLRVPASSEVVIEGYFAITREGVEGPFGEFAGYTPPETSLEPILSITAISWQDDPIWPVVAEGKPVDEYHTCTGIGDAAAIQNVLLTANLPVSFVWVPLYSACHLMIVSINRHWRQTHPDLTSEQLTKKVGDVIHQTRMSIKLPRIVVLDDDVDPADTESLLWALATRIHPERGRYFYESAIFPWLNCYSEEERHNRKGKRVIIDALLPENHGAISSFDYAYPDDIKQRVLMHWETDFSHD", "Activity relative to WT": "++++"}
{"molecule": "I283T-P284D-i284aP-N287P-S322T-N388M-E421V-R422F-C430N-L432F-L434W-S436N-dG462-A463T (protein) MFLKSLREQINLLKRQGDLRIINRPVDSYLEAAAIIRRSTETKAPVPLMTNIKGYPGCSIVGGLAALSSNPEYPLSRVAMSLGLSTTASAQSIVQYLIDGLKKTPYLPVEIDSNSAPCKQNILRGEDASLAHFPIPQVHQHDGNRYVNTWGVFIVESPDGQWCNWSIQRVQYLNDRQMIALVFPSQHISDIWEEWVKIGKPMPYALVQGCEPIVPYIAGLPLLERNVNEAEYIGALYGKGIEVVKCETHDLRVPASSEVVIEGYFAITREGVEGPFGEFAGYTDNEPSLQPILSITAISWQDDPIWPVVAEGKPVDEYHTCTGIGDAAAIQNVLLTANLPVSFVWVPLYSACHLMIVSINRHWRQTHPDLTSEQLTKKVGDVIHQTRMSIKLPKIVVLDDDVDPADTESLLWALATRIHPVFKRYFYESNIFPWLNCYSEEERHNRKGKRVIIDALLPENHGTISSFDYAYPDDIKQRVLMHWETDFSHD", "Activity relative to WT": "++++"}
{"molecule": "I283T-N285P-N287T-Q290E-S322T-N388M-K394R-dR422-C430A-L432F-L434W-S436N-dG462 (protein) MFLKSLREQINLLKRQGDLRIINRPVDSYLEAAAIIRRSTETKAPVPLMTNIKGYPGCSIVGGLAALSSNPEYPLSRVAMSLGLSTTASAQSIVQYLIDGLKKTPYLPVEIDSNSAPCKQNILRGEDASLAHFPIPQVHQHDGNRYVNTWGVFIVESPDGQWCNWSIQRVQYLNDRQMIALVFPSQHISDIWEEWVKIGKPMPYALVQGCEPIVPYIAGLPLLERNVNEAEYIGALYGKGIEVVKCETHDLRVPASSEVVIEGYFAITREGVEGPFGEFAGYTPPETSLEPILSITAISWQDDPIWPVVAEGKPVDEYHTCTGIGDAAAIQNVLLTANLPVSFVWVPLYSACHLMIVSINRHWRQTHPDLTSEQLTKKVGDVIHQTRMSIKLPRIVVLDDDVDPADTESLLWALATRIHPERKRYFYESAIFPWLNCYSEEERHNRKGKRVIIDALLPENHGAISSFDYAYPDDIKQRVLMHWETDFSHD", "Activity relative to WT": "++++"}
{"molecule": "I283T-P284D-i284aP-N287P-S322T-N388M-E421V-C430N-L432F-L434W-S436N-H461T-dG462-A463T (protein) MFLKSLREQINLLKRQGDLRIINRPVDSYLEAAAIIRRSTETKAPVPLMTNIKGYPGCSIVGGLAALSSNPEYPLSRVAMSLGLSTTASAQSIVQYLIDGLKKTPYLPVEIDSNSAPCKQNILRGEDASLAHFPIPQVHQHDGNRYVNTWGVFIVESPDGQWCNWSIQRVQYLNDRQMIALVFPSQHISDIWEEWVKIGKPMPYALVQGCEPIVPYIAGLPLLERNVNEAEYIGALYGKGIEVVKCETHDLRVPASSEVVIEGYFAITREGVEGPFGEFAGYTDNEPSLQPILSITAISWQDDPIWPVVAEGKPVDEYHTCTGIGDAAAIQNVLLTANLPVSFVWVPLYSACHLMIVSINRHWRQTHPDLTSEQLTKKVGDVIHQTRMSIKLPKIVVLDDDVDPADTESLLWALATRIHPVRKRYFYESNIFPWLNCYSEEERHNRKGKRVIIDALLPENTGTISSFDYAYPDDIKQRVLMHWETDFSHD", "Activity relative to WT": "++++"}
{"molecule": "I283T-P284D-i284aP-N287P-S322T-N388M-E421V-C430N-L432F-L434W-S436N-H461V-dG462-A463T (protein) MFLKSLREQINLLKRQGDLRIINRPVDSYLEAAAIIRRSTETKAPVPLMTNIKGYPGCSIVGGLAALSSNPEYPLSRVAMSLGLSTTASAQSIVQYLIDGLKKTPYLPVEIDSNSAPCKQNILRGEDASLAHFPIPQVHQHDGNRYVNTWGVFIVESPDGQWCNWSIQRVQYLNDRQMIALVFPSQHISDIWEEWVKIGKPMPYALVQGCEPIVPYIAGLPLLERNVNEAEYIGALYGKGIEVVKCETHDLRVPASSEVVIEGYFAITREGVEGPFGEFAGYTDNEPSLQPILSITAISWQDDPIWPVVAEGKPVDEYHTCTGIGDAAAIQNVLLTANLPVSFVWVPLYSACHLMIVSINRHWRQTHPDLTSEQLTKKVGDVIHQTRMSIKLPKIVVLDDDVDPADTESLLWALATRIHPVRKRYFYESNIFPWLNCYSEEERHNRKGKRVIIDALLPENVGTISSFDYAYPDDIKQRVLMHWETDFSHD", "Activity relative to WT": "++++"}
